Values quoted from earlier work as cited in patent US20260159592A1, “COMPOSITIONS AND METHODS FOR TARGETING AND KILLING ALPHA-V BETA-3 -POSITIVE CANCER STEM CELLS (CSCS) AND TREATING DRUG RESISTANT AND METASTATIC CANCERS” (The Regents of the University of California, priority 2019, published 2026).

Experiments:
[1] = tested on: M21 cells; conditions: ligands such as vitronectin, fibrinogen and von Willebrand factor; Cheresh and Spiro
[2] = target: T1, αvβ3 (Homo sapiens, UniProt P05106+P06756); conditions: Brooks et al. Cell 79:1157-1164 (1994)
T1 sequence (P06756 31-889 limits assumed): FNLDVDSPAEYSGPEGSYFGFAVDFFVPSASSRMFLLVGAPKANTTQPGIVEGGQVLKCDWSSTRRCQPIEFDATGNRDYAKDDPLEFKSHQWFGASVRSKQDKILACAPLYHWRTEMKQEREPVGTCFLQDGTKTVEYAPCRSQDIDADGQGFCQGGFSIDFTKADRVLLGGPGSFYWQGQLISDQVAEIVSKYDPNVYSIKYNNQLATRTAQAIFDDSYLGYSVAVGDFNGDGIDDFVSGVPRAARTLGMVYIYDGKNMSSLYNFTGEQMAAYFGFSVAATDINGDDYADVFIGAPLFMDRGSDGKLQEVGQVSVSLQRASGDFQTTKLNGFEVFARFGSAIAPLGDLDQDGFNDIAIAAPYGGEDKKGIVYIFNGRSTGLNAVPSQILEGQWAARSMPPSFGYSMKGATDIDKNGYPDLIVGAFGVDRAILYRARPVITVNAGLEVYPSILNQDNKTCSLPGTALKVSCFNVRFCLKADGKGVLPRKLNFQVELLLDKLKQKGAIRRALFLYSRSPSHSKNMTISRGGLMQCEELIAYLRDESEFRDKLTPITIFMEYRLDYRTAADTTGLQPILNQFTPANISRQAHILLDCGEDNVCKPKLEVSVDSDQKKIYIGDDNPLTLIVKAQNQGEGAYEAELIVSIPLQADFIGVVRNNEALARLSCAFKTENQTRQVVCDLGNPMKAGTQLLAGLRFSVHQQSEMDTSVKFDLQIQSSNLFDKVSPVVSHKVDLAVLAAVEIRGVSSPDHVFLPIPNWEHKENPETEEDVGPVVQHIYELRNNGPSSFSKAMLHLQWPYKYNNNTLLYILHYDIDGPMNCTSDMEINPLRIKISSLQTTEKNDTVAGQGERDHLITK
T1 sequence (P06756 891-1048 limits assumed): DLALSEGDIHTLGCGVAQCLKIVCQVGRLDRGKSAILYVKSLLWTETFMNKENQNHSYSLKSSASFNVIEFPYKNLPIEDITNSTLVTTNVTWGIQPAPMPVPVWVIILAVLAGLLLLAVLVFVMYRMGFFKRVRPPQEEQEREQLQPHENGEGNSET
T1 sequence (P05106 27-788): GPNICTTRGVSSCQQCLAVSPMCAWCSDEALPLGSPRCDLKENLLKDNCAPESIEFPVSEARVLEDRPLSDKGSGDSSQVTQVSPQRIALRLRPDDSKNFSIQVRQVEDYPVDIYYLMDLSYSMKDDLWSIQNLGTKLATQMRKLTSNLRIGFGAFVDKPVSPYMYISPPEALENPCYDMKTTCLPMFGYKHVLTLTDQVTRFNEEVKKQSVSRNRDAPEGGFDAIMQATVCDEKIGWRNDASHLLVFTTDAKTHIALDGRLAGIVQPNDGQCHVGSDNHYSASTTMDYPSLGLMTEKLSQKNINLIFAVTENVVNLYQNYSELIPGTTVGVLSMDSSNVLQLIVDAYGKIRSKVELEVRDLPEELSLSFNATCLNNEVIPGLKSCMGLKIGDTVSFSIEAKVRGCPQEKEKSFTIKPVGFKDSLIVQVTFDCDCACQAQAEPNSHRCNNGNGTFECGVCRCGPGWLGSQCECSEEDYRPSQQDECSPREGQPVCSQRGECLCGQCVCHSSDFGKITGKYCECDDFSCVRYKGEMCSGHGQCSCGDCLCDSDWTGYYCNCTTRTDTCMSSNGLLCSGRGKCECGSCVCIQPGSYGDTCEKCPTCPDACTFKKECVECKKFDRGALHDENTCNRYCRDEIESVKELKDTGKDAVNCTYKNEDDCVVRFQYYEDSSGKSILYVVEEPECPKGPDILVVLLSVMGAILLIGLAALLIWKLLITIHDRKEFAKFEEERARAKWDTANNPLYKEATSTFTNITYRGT

[3] = target: T1, αvβ3; conditions: Clark et al., Am. J. Pathology 148:1407-1421 (1996)
[4] = target: T1, αvβ3; conditions: Choi et al. (1994); Jones et al. (1996)

B1: LM609: murine monoclonal antibody specific for the integrin αvβ3 (antibody, V domains shown)
VH: EVQLVESGGGLVKPGRSLRLSCAASGFAFSSYDMSWVRQIPEKRLEWVAKVSSGGGSTYYLDTVQGRFTISRDNAKNTLYLQMSSLNSEDTAMYYCARHNYGSFAYWGQGTLVTVSA
VL: DIVLTQSPATLSVTPGDSVSLSCQASQSISNHLHWYQQKSHESPRLLIKYRSQSISGIPSRFSGSGSGTDFALSINSVETEDFGMYFCQQSGSWPHTFGGGTKLEIK
- attachment of M21 cells to αvβ ligands [1]: inhibits
- tumor induced angiogenesis [2]: inhibitor
- granulation tissue development in cutaneous wound [3]: inhibitor
- smooth muscle cell migration such as that occurring during restenosis [4]: inhibitor
